The source of these data is patent US20240010722A1 (published 2024).

The target in assay [1] is T1, human MAdCAM on CHO cells (human, UniProt Q13477 19-382).
T1 construct: whole, on cells; also called CHO cells over-expressing human MAdCAM
T1 sequence (looked up): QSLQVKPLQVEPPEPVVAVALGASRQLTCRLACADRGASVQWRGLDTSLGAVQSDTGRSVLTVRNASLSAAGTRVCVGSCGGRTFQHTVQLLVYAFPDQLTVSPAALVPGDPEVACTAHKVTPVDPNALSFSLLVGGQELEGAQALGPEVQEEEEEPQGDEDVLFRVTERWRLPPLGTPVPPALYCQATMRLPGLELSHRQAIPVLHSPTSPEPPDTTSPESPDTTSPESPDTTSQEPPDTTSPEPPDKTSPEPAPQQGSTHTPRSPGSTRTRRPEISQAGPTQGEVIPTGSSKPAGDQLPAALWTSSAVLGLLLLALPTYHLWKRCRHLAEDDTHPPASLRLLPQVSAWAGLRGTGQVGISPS
Put plainly: flow cytometry on CHO cells. How it is done: (§1) Parental CHO cells or CHO cells over-expressing human MAdCAM or murine MAdCAM were seeded onto wells of a 96 well plate (Corning) overnight. After washing 3 times with F12+10% FBS media, the plate was blocked for 1 hour with 5 uM whole human IgG. 10 nM parental MAdCAM-IL-2 M bi-specifics PRNT1 and PRNT2, or optimized variants MIAB12, MIAB13, MIAB25, MIAB26, MIAB37, MIAB204 and MIAB197 were captured for 1 hour. After washing 2 times with F12+10% FBS media, freshly-isolated human PBMCs were stimulated for 60 minutes with captured IL-2 MM bispecifics. Cells were then fixed for 10 minutes with BD Cytofix, permeabilized sequentially with BD Perm III, and BioLegend FOXP3 permeabilization buffer, blocked with human serum and stained for 30 minutes with antibodies against phospho-STAT5 A488, CD25 PE, FOXP3 AF647 and CD4 PerCP Cy5.5, CD3 BV421, CD56 BV785 and acquired on an Attune NXT with plate loader. […] Accordingly, PRNT1, PRNT2, MIAB1, MIAB12, MIAB13, MIAB25, MIAB26, MIAB37 MIAB204, and MIAB197 selectively activate Tregs.
In general terms: Flow cytometry measures light scatter and fluorescence of single cells or particles in a stream.

The target in assay [2] is T2, murine MAdCAM on cells (mouse, UniProt Q61826 22-405).
T2 construct: whole, on cells; also called CHO cells over-expressing murine MAdCAM; MAdCAM-1 expressing structures of mouse mesenteric lymph node
T2 sequence (looked up): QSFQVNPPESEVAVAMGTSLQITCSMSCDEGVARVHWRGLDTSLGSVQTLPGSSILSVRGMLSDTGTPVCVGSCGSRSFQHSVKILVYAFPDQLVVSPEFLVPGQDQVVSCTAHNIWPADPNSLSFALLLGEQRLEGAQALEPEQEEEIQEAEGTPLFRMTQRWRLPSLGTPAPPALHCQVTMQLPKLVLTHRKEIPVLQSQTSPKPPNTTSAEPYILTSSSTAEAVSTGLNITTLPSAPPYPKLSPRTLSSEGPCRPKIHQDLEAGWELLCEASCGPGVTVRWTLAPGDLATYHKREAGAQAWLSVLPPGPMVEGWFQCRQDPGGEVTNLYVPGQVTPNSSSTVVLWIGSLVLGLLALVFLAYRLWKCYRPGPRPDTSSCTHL
Nature of the assay: flow cytometry on CHO cells. The method, then:
as §1

For assay [3], the target named is T2, murine MAdCAM on cells. Put plainly: confocal staining of mouse mesenteric lymph node sections, 1 and 10 nM. The method, then: Fresh frozen mesenteric lymph node replicates from a 12-week BALB/c mouse were sectioned at 5 um, fixed with acetone, blocked with blockaid buffer solution for ten minutes room temperature and incubated with 1 and 10 nM titrations of test articles overnight at 4-degree Celsius. Tissues were then stained with anti-mouse MAdCAM and anti-human IgG Fc for two hours room temperature, DAPI counterstained and mounted and imaged with confocal microscopy. Clones including optimized MAdCAM (PMAB58 and PMAB18) co-localized with MAdCAM-1 expressing structures similarly to the parental clones (PMAB1 and PMAB57).

B1: MIAB37 (antibody, V domains shown)
VH: EVQLLESGGGLVQPGGSLRLSCAASGFTFDDYAMHWVRQAPGKGLEWVASITSSSAFIDYADSVKGRFTISRDNSKNTLYLQMNSLRAEDTAVYYCAQERVDWNSYFDLWGQGTLVTVSS
VL: EIVMTQSPATLSVSPGERATLSCRASQGISNSYLAWYQQKPGQAPRLLIYGASTRATGIPARFSGSGSGTEFTLTISSLQSEDFAVYYCQQYYTYPPTFGQGTKVEIK
notes: tested with human Fc
As for B1, the binding result in assay [1] and in assay [2] was “binds” in each case.

B2: PMAB1 (bispecific antibody, human IgG1, kappa)
heavy: EVQLLESGGGLVQPGGSLRLSCAASGFTFSNSDMSWVRQAPGKGLEWVSGITISGGSTYYADSVKGRFTISRDNSKNTLYLQMNSLRAEDTAVYYCARGRGGSGWLDYWGQGTLVTVSSASTKGPSVFPLAPSSKSTSGGTAALGCLVKDYFPEPVTVSWNSGALTSGVHTFPAVLQSSGLYSLSSVVTVPSSSLGTQTYICNVNHKPSNTKVDKKVEPKSCDKTHTCPPCPAPEAAGAPSVFLFPPKPKDTLMISRTPEVTCVVVDVSHEDPEVKFNWYVDGVEVHNAKTKPREEQYNSTYRVVSVLTVLHQDWLNGKEYKCKVSNKALPAPIEKTISKAKGQPREPQVYTLPPSREEMTKNQVSLTCLVKGFYPSDIAVEWESNGQPENNYKTTPPVLDSDGSFFLYSKLTVDKSRWQQGNVFSCSVMHEALHNHYTQKSLSLSPGGGGGSGGGGSGGGGSEVQLLESGGGLVQPGGSLRLSCAASGFTFSDFWMHWVRQAPGKGLEWISYISGDSGYTNYADSVKGRFTISRDNSKNTLYLQMNSLRAEDTAVYYCARDRPYYYYMDVWGKGTTVTVSSGGGGSGGGGSGGGGSGGGGSDIQMTQSPSSLSASVGDRVTITCRASQSVSRSLAWYQQKPGKAPKLLIYAASSLQSGVPSRFSGSGSGTDFTLTISSLQPEDFATYYCQQYKSYPVTFGQGTKVEIK
light: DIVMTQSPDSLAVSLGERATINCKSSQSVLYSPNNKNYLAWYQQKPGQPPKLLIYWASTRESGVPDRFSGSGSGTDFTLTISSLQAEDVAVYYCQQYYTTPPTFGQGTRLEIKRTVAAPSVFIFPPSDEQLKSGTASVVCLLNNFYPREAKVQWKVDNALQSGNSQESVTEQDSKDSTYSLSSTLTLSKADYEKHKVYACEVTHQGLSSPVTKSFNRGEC
notes: also called parental PMAB1
For B2, in assay [3], the binding result is listed as “binds”.
